Test results reported in the Immune Epitope Database (IEDB).

Legend:
[1] = target: HLA-A*02:02; test: IEDB peptide-MHC binding, purified MHC/competitive/radioactivity; filed as Kd, often an IC50 or EC50 that approximates it; ≥ and ≤ were set here for values at or beyond the usual limits of such assays
[2] = target: HLA-A*02:03; test: as above
[3] = target: HLA-A*02:06; test: as above
[4] = target: HLA-A*24:02; test: as above
[5] = target: HLA-A*02:01; test: IEDB peptide-MHC binding, purified MHC/competitive/fluorescence; ≥ and ≤ were set here for values at or beyond the usual limits of such assays
[6] = target: HLA-A*30:02; test: IEDB peptide-MHC binding, purified MHC/competitive/radioactivity; filed as Kd, often an IC50 or EC50 that approximates it; ≥ and ≤ were set here for values at or beyond the usual limits of such assays
[7] = target: HLA-A*01:01; test: as above
[8] = target: HLA-A*26:01; test: as above
[9] = target: HLA-A*23:01; test: as above
[10] = target: HLA-A*02:01; test: IEDB peptide-MHC binding, purified MHC/direct/fluorescence; filed as Kd, often an IC50 or EC50 that approximates it; ≥ and ≤ were set here for values at or beyond the usual limits of such assays; details: source organism: Mammarenavirus amapariense
[11] = source organism: Mammarenavirus juninense
[12] = source organism: Vaccinia virus WR
[13] = source organism: Dengue virus 2 Jamaica/1409/1983
[14] = source organism: Vaccinia virus
[15] = source organism: Dengue virus 4 Philippines/H241/1956
[16] = source organism: Dengue virus 1 Brazil/97-11/1997
[17] = source organism: SARS coronavirus Tor2
[18] = source organism: Dengue virus 3 Martinique/1243/1999
[19] = source organism: Dengue virus 4 Dominica/814669/1981
[20] = source organism: Zaire ebolavirus

Sequence | Kd [1, 12] [µM] | Kd [2, 12] [µM] | Kd [3, 12] [µM] | other results
ALNIALVAV | – | – | – | Kd [1, 11]: 0.0153 µM; Kd [2, 11]: 0.00446 µM; Kd [3, 11]: 0.37 µM
AADLTQIFEV | 1.24 | 0.404 | 0.0109 | –
LYAVATTFVT | – | – | – | Kd [4, 13]: 0.55 µM
YNIDKIKDV | – | – | – | IC50 [5, 14]: 9.18 µM
SLVITYCLV | 1.69 | 0.201 | 0.269 | –
GVPLLAMGCY | – | – | – | Kd [6, 15]: 0.105 µM
ETEPPFGESY | – | – | – | Kd [7, 16]: 0.00528 µM; Kd [8, 16]: 0.134 µM
YVEHDPRLV | 1.18 | 0.711 | ≥ 22.5 | –
YIFFASFYYI | – | – | – | Kd [1, 17]: 0.00046 µM; Kd [2, 17]: 0.0598 µM; Kd [3, 17]: 0.0008 µM
KYTDRKWCF | – | – | – | Kd [9, 18]: 0.18 µM; Kd [4, 18]: 0.138 µM
YLGPRVCWL | 0.000901 | 0.00336 | 0.0232 | –
NSEQGGRAY | – | – | – | Kd ([7]; source organism: Dengue virus 1 Singapore/S275/1990): 0.316 µM
QYIYMGEPLE | – | – | – | Kd [4, 13]: 9.09 µM
QFLFQLNDT | – | – | – | IC50 ([5]; source organism: Sudan ebolavirus): 10.8 µM
GMSIVCIVAA | 0.161 | 0.231 | 1.22 | –
LVIGFLFLA | – | – | – | Kd [1, 17]: 0.00738 µM; Kd [2, 17]: 0.0196 µM; Kd [3, 17]: ≤ 0.0001 µM
LTFIKTTLSL | – | – | – | Kd [8, 16]: 11.4 µM
VFGSVYTTMF | – | – | – | Kd [9, 15]: 0.0573 µM; Kd [4, 15]: 1.17 µM
TTLLNETAKV | 1.64 | 0.00017 | 1.65 | –

Sequence | Kd [1, 12] [µM] | Kd [2, 12] [µM] | Kd [3, 12] [µM] | other results
STITLLCLI | – | – | – | Kd [8, 19]: 0.867 µM
LMSFTILCLV | – | – | – | Kd [1, 17]: 0.000338 µM; Kd [2, 17]: 0.0906 µM; Kd [3, 17]: 0.0396 µM
DTIETLMLL | – | – | – | Kd [8, 16]: 0.141 µM
NTNQGNILM | 1.7 | 1.15 | 5.94 | –
GIKCIKKGV | – | – | – | IC50 [5, 14]: ≥ 102 µM
PRCRYVHKV | – | – | – | IC50 [5, 20]: ≥ 3070 µM
VHTWTEQYKF | – | – | – | Kd [9, 13]: 0.889 µM; Kd [4, 13]: 3.78 µM
LINLVQYRI | 0.311 | 0.583 | 5.34 | –
TTENAAYQVL | ≥ 29.7 | ≥ 70.4 | ≥ 69.8 | –
GVAGLITGG | – | – | – | IC50 [5, 20]: ≥ 77 µM
AIKQYGDIDL | ≥ 23.4 | ≥ 46.4 | ≥ 69.8 | –
FLAFVVFLL | – | – | – | Kd [1, 17]: 0.000411 µM; Kd [2, 17]: 0.0879 µM; Kd [3, 17]: 0.00257 µM
KTEHCDDFMT | 7.82 | ≥ 37.7 | 11.6 | –
QKAALSEGVY | – | – | – | Kd ([6]; source organism: Dengue virus 4 Singapore/8976/1995): 0.139 µM
SGLLIVKTV | – | – | – | IC50 [5, 20]: 2.29 µM
RTRLYDYFT | 7.1 | 3.05 | ≥ 48.5 | –
DTVTYECPL | – | – | – | Kd [8, 15]: 6.13 µM
GAFMYTKHSM | 0.544 | 0.458 | 3.14 | –
RLDDDGNFQL | – | – | – | IC50 ([5]; source organism: West Nile virus NY-99): 0.847 µM

Sequence | Kd [1, 12] [µM] | Kd [2, 12] [µM] | Kd [3, 12] [µM] | other results
KADAVVADL | 5.14 | 12.4 | 2.21 | –
TTIGTIAGGV | 0.741 | 0.0426 | 0.0843 | –
GALYLGHSA | 7.5 | 1.9 | 0.792 | –
ELPVKTDIV | ≥ 23 | 8.06 | 11.5 | –
EFFLIVLLI | – | – | – | Kd [4, 13]: 3.05 µM
ISQHNYRPGY | – | – | – | Kd [7, 16]: 11.1 µM; Kd [6, 16]: 0.0838 µM
ILWDYFSLV | – | – | – | Kd [10]: 0.0002 µM
QLYTISSESL | 0.0717 | 0.245 | 4.75 | –
NLTIAWPRM | – | – | – | IC50 ([5]; source organism: Human alphaherpesvirus 1 strain 17): ≥ 50 µM
ELIDGISLGL | – | – | – | Kd [8, 19]: 0.5 µM
FLLVTLAIL | – | – | – | Kd [1, 17]: 0.000645 µM; Kd [2, 17]: 0.00097 µM; Kd [3, 17]: 0.000476 µM
LWMASVEPHW | – | – | – | Kd [9, 16]: 0.13 µM; Kd [4, 16]: 0.231 µM
ETLFGSYIT | 2.49 | 2.44 | 15.3 | –
MSYTMCSGKF | – | – | – | Kd [7, 15]: 7.72 µM; Kd [8, 15]: 1.51 µM; Kd [6, 15]: 0.0818 µM
VIDLEPISY | – | – | – | Kd [7, 15]: 0.0517 µM
VLALYSPPL | 0.000224 | 0.000412 | 0.0326 | –
ISSTPFAEY | – | – | – | Kd [7, 15]: 1.89 µM; Kd [6, 15]: 0.319 µM
DTITYKCPL | – | – | – | Kd [8, 13]: 3.38 µM
GMMQNDYGGM | 0.103 | 0.589 | 12 | –
